The values that follow come from patent CN117836321A.

The test deals with VV B5单体蛋白 (Wyeth牛痘毒株的B5序列, C-末端AVI标签和HIS6标签) (牛痘病毒 Wyeth毒株).

B1: A048亲本抗B5 hIgG1 (antibody, V domains shown)
VH: QEQLEESGGGLVKPEGSLTLTCTASGFSFSSSYYMCWVRQAPGRGLEWIACIYTSSGSAYYANWAKGRFTISRTSSTTVTLQMTRLTAADTATYFCVRNAVGSSYYLYLWGPGTLVTVSS
VL: AQVLTQTPSPVSAAVGGTVTISCQASQSVAGNNYLSWYQQKPGQPPNLLIYSVSTLASGVPSRFKGSGSGTQFTLTISDLECDDAATYYCQGYYNDGIWAFGGGTEVVVK
The molecule B1 showed an equilibrium dissociation constant (Kd) of 9.5 nM.
